Reference: patent US6747005

Legend:
[1] = biological target: ΔN-Rch1 lacking the Importin β binding site, P52292
[2] = biological target: recombinant Importin α Rch1, full-length, P52292
[3] = biological target: Rch1 N-terminal fragment (residues 1-95), P52292

B1: recombinant CBP HAT domain (amino acids 1098-1758) (protein)
chain: TLEALYRQDPESLPFRQPVDPQLLGIPDYFDIVKNPMDLSTIKRKLDTGQYQEPWQYVDDVWLMFNNAWLYNRKTSRVYKFCSKLAEVFEQEIDPVMQSLGYCCGRKYEFSPQTLCCYGKQLCTIPRDAAYYSYQNRYHFCEKCFTEIQGENVTLGDDPSQPQTTISKDQFEKKKNDTLDPEPFVDCKECGRKMHQICVLHYDIIWPSGFVCDNCLKKTGRPRKENKFSAKRLQTTRLGNHLEDRVNKFLRRQNHPEAGEVFVRVVASSDKTVEVKPGMKSRFVDSGEMSESFPYRTKALFAFEEIDGVDVCFFGMHVQNTALIAPHQIQGRVYISYLDSIHFFRPRCLRTAVYHEILIGYLEYVKKLGYVTGHIWACPPSEGDDYIFHCHPPDQKIPKPKRLQEWYKKMLDKAFAERIINDYKDIFKQANEDRLTSAKELPYFEGDFWPNVLEESIKELEQEEEERKKEESTAASETPEGSQGDSKNAKKKNNKKTNKNKSSISRANKKKPSMPNVSNDLSQKLYATMEKHKEVFFVIHLHAGPVISTQPPIVDPDPLLSCDLMDGRDAFLTLARDKHWEFSSLRRSKWSTLCMLVELHTQGQDRFVYTCNECKHHVETRWHCTVCEDYDLCINCYNTKSHTHKMVKWGLGLDDEGSSQG
- acetylation (analysis as in the first experiment) (Importin α7): CBP was shown to acetylate Importin α family members, Rch1 and Importin α7
- acetylation ([14-C]-acetyl coA, SDS-PAGE, blot exposed to film) [1]: Only the full-length Rch1 and the N-terminal 1-95 fragment showed acetylation. (ΔN-Rch1 showed none)
- acetylation ([14-C]-acetyl coA, SDS-PAGE, blot exposed to film) [2]: Only the full-length Rch1 and the N-terminal 1-95 fragment showed acetylation.
- acetylation (analysis as in the first experiment) [2]: CBP was shown to acetylate Importin α family members, Rch1 and Importin α7
- acetylation ([14-C]-acetyl coA, SDS-PAGE, blot exposed to film) [3]: Only the full-length Rch1 and the N-terminal 1-95 fragment showed acetylation.
